Laboratory results published in the supplement of paper PMC10567573.

B1: SNAP91 (parent)
chain: FSTDAFSSPPQGASPVPESSLTAD

Variants of: B1
Assay: protein stability index of a GFP-peptide fusion (GPS, HEK-293T) (PSI 1-6); higher = more stable
Conditions: c terminus: a fixed tail appended
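Further: lentivirally expressed fusions sorted by FACS into six bins by GFP to DsRed ratio, PSI derived from sequencing read proportions per bin multiplied by bin number.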

| Variant | protein stability index |
| --- | --- |
| FSTDAFLSPPQGASPVPESSLTAD | 2.96 |
| FSTDAFMSPPQGASPVPESSLTAD | 2.84 |
| FSTDAFNSPPQGASPVPESSLTAD | 4.22 |
| FSTDAFPSPPQGASPVPESSLTAD | 3.56 |
| FSTDAFQSPPQGASPVPESSLTAD | 3.77 |
| FSTDAFRSPPQGASPVPESSLTAD | 1.62 |
| FSTDAFTSPPQGASPVPESSLTAD | 3.33 |
| FSTDAFVSPPQGASPVPESSLTAD | 2.32 |
| FSTDAFWSPPQGASPVPESSLTAD | 3.15 |
| FSTDAFYSPPQGASPVPESSLTAD | 2.9 |
| FSTDAFSAPPQGASPVPESSLTAD | 3.31 |
| FSTDAFSCPPQGASPVPESSLTAD | 2.75 |
| FSTDAFSDPPQGASPVPESSLTAD | 4.93 |
| FSTDAFSEPPQGASPVPESSLTAD | 4.58 |
| FSTDAFSFPPQGASPVPESSLTAD | 3.22 |
| FSTDAFSGPPQGASPVPESSLTAD | 3.67 |
| FSTDAFSHPPQGASPVPESSLTAD | 2.75 |
| FSTDAFSIPPQGASPVPESSLTAD | 2.62 |
| FSTDAFSKPPQGASPVPESSLTAD | 2.38 |
| FSTDAFSLPPQGASPVPESSLTAD | 3.29 |
| FSTDAFSMPPQGASPVPESSLTAD | 3.02 |
| FSTDAFSNPPQGASPVPESSLTAD | 2.75 |
| FSTDAFSPPPQGASPVPESSLTAD | 4 |
| FSTDAFSQPPQGASPVPESSLTAD | 2.86 |

| Variant | protein stability index |
| --- | --- |
| FSTDAFSRPPQGASPVPESSLTAD | 2.87 |
| FSTDAFSTPPQGASPVPESSLTAD | 3.33 |
| FSTDAFSVPPQGASPVPESSLTAD | 3.16 |
| FSTDAFSWPPQGASPVPESSLTAD | 3.44 |
| FSTDAFSYPPQGASPVPESSLTAD | 3.39 |
| FSTDAFSSAPQGASPVPESSLTAD | 2.52 |
| FSTDAFSSCPQGASPVPESSLTAD | 2.61 |
| FSTDAFSSDPQGASPVPESSLTAD | 3.96 |
| FSTDAFSSEPQGASPVPESSLTAD | 4.35 |
| FSTDAFSSFPQGASPVPESSLTAD | 2.46 |
| FSTDAFSSGPQGASPVPESSLTAD | 2.76 |
| FSTDAFSSHPQGASPVPESSLTAD | 2.89 |
| FSTDAFSSIPQGASPVPESSLTAD | 2.43 |
| FSTDAFSSKPQGASPVPESSLTAD | 2.92 |
| FSTDAFSSLPQGASPVPESSLTAD | 2.65 |
| FSTDAFSSMPQGASPVPESSLTAD | 2.16 |
| FSTDAFSSNPQGASPVPESSLTAD | 3.13 |
| FSTDAFSSQPQGASPVPESSLTAD | 3.02 |
| FSTDAFSSRPQGASPVPESSLTAD | 2.91 |
| FSTDAFSSSPQGASPVPESSLTAD | 3.74 |
| FSTDAFSSTPQGASPVPESSLTAD | 2.85 |
| FSTDAFSSVPQGASPVPESSLTAD | 2.74 |
| FSTDAFSSWPQGASPVPESSLTAD | 2.24 |
| FSTDAFSSYPQGASPVPESSLTAD | 2.45 |

| Variant | protein stability index |
| --- | --- |
| FSTDAFSSPAQGASPVPESSLTAD | 3.09 |
| FSTDAFSSPCQGASPVPESSLTAD | 2.8 |
| FSTDAFSSPDQGASPVPESSLTAD | 3.61 |
| FSTDAFSSPEQGASPVPESSLTAD | 3.23 |
| FSTDAFSSPFQGASPVPESSLTAD | 2.28 |
| FSTDAFSSPGQGASPVPESSLTAD | 2.69 |
| FSTDAFSSPHQGASPVPESSLTAD | 2.29 |
| FSTDAFSSPIQGASPVPESSLTAD | 2.42 |
| FSTDAFSSPKQGASPVPESSLTAD | 3.16 |
| FSTDAFSSPLQGASPVPESSLTAD | 3.38 |
| FSTDAFSSPMQGASPVPESSLTAD | 2.29 |
| FSTDAFSSPNQGASPVPESSLTAD | 2.64 |
| FSTDAFSSPQQGASPVPESSLTAD | 3.24 |
| FSTDAFSSPRQGASPVPESSLTAD | 2.55 |
| FSTDAFSSPSQGASPVPESSLTAD | 2.71 |
| FSTDAFSSPTQGASPVPESSLTAD | 2.73 |
| FSTDAFSSPVQGASPVPESSLTAD | 2.73 |
| FSTDAFSSPWQGASPVPESSLTAD | 1.72 |
| FSTDAFSSPYQGASPVPESSLTAD | 2.18 |
| FSTDAFSSPPAGASPVPESSLTAD | 3.33 |
| FSTDAFSSPPCGASPVPESSLTAD | 2.56 |
| FSTDAFSSPPDGASPVPESSLTAD | 4.01 |
| FSTDAFSSPPEGASPVPESSLTAD | 3.9 |
| FSTDAFSSPPFGASPVPESSLTAD | 2.68 |

| Variant | protein stability index |
| --- | --- |
| FSTDAFSSPPGGASPVPESSLTAD | 3.34 |
| FSTDAFSSPPHGASPVPESSLTAD | 3.43 |
| FSTDAFSSPPIGASPVPESSLTAD | 3.25 |
| FSTDAFSSPPKGASPVPESSLTAD | 2.68 |
| FSTDAFSSPPLGASPVPESSLTAD | 2.74 |
| FSTDAFSSPPMGASPVPESSLTAD | 2.69 |
| FSTDAFSSPPNGASPVPESSLTAD | 3.13 |
| FSTDAFSSPPPGASPVPESSLTAD | 3.27 |
| FSTDAFSSPPRGASPVPESSLTAD | 3.06 |
| FSTDAFSSPPSGASPVPESSLTAD | 4.17 |
| FSTDAFSSPPTGASPVPESSLTAD | 3.75 |
| FSTDAFSSPPVGASPVPESSLTAD | 2.88 |
| FSTDAFSSPPWGASPVPESSLTAD | 2.2 |
| FSTDAFSSPPYGASPVPESSLTAD | 2.22 |
| FSTDAFSSPPQAASPVPESSLTAD | 3.39 |
| FSTDAFSSPPQCASPVPESSLTAD | 2.62 |
| FSTDAFSSPPQDASPVPESSLTAD | 3.52 |
| FSTDAFSSPPQEASPVPESSLTAD | 3.58 |
| FSTDAFSSPPQFASPVPESSLTAD | 2.6 |
| FSTDAFSSPPQHASPVPESSLTAD | 2.63 |
| FSTDAFSSPPQIASPVPESSLTAD | 2.68 |
| FSTDAFSSPPQKASPVPESSLTAD | 2.73 |
| FSTDAFSSPPQLASPVPESSLTAD | 2.75 |
| FSTDAFSSPPQMASPVPESSLTAD | 2.58 |

| Variant | protein stability index |
| --- | --- |
| FSTDAFSSPPQNASPVPESSLTAD | 3.08 |
| FSTDAFSSPPQPASPVPESSLTAD | 2.93 |
| FSTDAFSSPPQQASPVPESSLTAD | 3.35 |
| FSTDAFSSPPQRASPVPESSLTAD | 3.11 |
| FSTDAFSSPPQSASPVPESSLTAD | 2.79 |
| FSTDAFSSPPQTASPVPESSLTAD | 3.5 |
| FSTDAFSSPPQVASPVPESSLTAD | 2.92 |
| FSTDAFSSPPQWASPVPESSLTAD | 2.32 |
| FSTDAFSSPPQYASPVPESSLTAD | 2.44 |
| FSTDAFSSPPQGCSPVPESSLTAD | 2.69 |
| FSTDAFSSPPQGDSPVPESSLTAD | 3.45 |
| FSTDAFSSPPQGESPVPESSLTAD | 3.22 |
| FSTDAFSSPPQGFSPVPESSLTAD | 2.54 |
| FSTDAFSSPPQGGSPVPESSLTAD | 2.99 |
| FSTDAFSSPPQGHSPVPESSLTAD | 3.16 |
| FSTDAFSSPPQGISPVPESSLTAD | 2.52 |
| FSTDAFSSPPQGKSPVPESSLTAD | 2.47 |
| FSTDAFSSPPQGLSPVPESSLTAD | 2.82 |
| FSTDAFSSPPQGMSPVPESSLTAD | 2.93 |
| FSTDAFSSPPQGNSPVPESSLTAD | 3.51 |
| FSTDAFSSPPQGPSPVPESSLTAD | 2.72 |
| FSTDAFSSPPQGQSPVPESSLTAD | 3.11 |
| FSTDAFSSPPQGRSPVPESSLTAD | 2.77 |
| FSTDAFSSPPQGSSPVPESSLTAD | 3.54 |

| Variant | protein stability index |
| --- | --- |
| FSTDAFSSPPQGTSPVPESSLTAD | 3.47 |
| FSTDAFSSPPQGVSPVPESSLTAD | 2.75 |
| FSTDAFSSPPQGWSPVPESSLTAD | 2.72 |
| FSTDAFSSPPQGYSPVPESSLTAD | 2.85 |
| FSTDAFSSPPQGAAPVPESSLTAD | 3.57 |
| FSTDAFSSPPQGACPVPESSLTAD | 3 |
| FSTDAFSSPPQGADPVPESSLTAD | 3.62 |
| FSTDAFSSPPQGAEPVPESSLTAD | 3.27 |
| FSTDAFSSPPQGAFPVPESSLTAD | 2.54 |
| FSTDAFSSPPQGAGPVPESSLTAD | 3.3 |
| FSTDAFSSPPQGAHPVPESSLTAD | 3.06 |
| FSTDAFSSPPQGAIPVPESSLTAD | 2.89 |
| FSTDAFSSPPQGAKPVPESSLTAD | 2.9 |
| FSTDAFSSPPQGALPVPESSLTAD | 3.22 |
| FSTDAFSSPPQGAMPVPESSLTAD | 2.95 |
| FSTDAFSSPPQGANPVPESSLTAD | 3 |
| FSTDAFSSPPQGAQPVPESSLTAD | 2.75 |
| FSTDAFSSPPQGARPVPESSLTAD | 2.88 |
| FSTDAFSSPPQGATPVPESSLTAD | 3.29 |
| FSTDAFSSPPQGAVPVPESSLTAD | 2.63 |
| FSTDAFSSPPQGAWPVPESSLTAD | 2.69 |
| FSTDAFSSPPQGAYPVPESSLTAD | 2.84 |
| FSTDAFSSPPQGASAVPESSLTAD | 3.25 |
| FSTDAFSSPPQGASCVPESSLTAD | 2.78 |

| Variant | protein stability index |
| --- | --- |
| FSTDAFSSPPQGASDVPESSLTAD | 3.27 |
| FSTDAFSSPPQGASEVPESSLTAD | 3.6 |
| FSTDAFSSPPQGASFVPESSLTAD | 2.57 |
| FSTDAFSSPPQGASGVPESSLTAD | 2.83 |
| FSTDAFSSPPQGASHVPESSLTAD | 3.5 |
| FSTDAFSSPPQGASIVPESSLTAD | 2.67 |
| FSTDAFSSPPQGASKVPESSLTAD | 2.43 |
| FSTDAFSSPPQGASLVPESSLTAD | 2.64 |
| FSTDAFSSPPQGASMVPESSLTAD | 2.72 |
| FSTDAFSSPPQGASNVPESSLTAD | 3.12 |
| FSTDAFSSPPQGASQVPESSLTAD | 3.17 |
| FSTDAFSSPPQGASRVPESSLTAD | 2.97 |
| FSTDAFSSPPQGASSVPESSLTAD | 3.03 |
| FSTDAFSSPPQGASTVPESSLTAD | 3.17 |
| FSTDAFSSPPQGASVVPESSLTAD | 3.05 |
| FSTDAFSSPPQGASWVPESSLTAD | 2.37 |
| FSTDAFSSPPQGASYVPESSLTAD | 2.44 |
| FSTDAFSSPPQGASPAPESSLTAD | 3.6 |
| FSTDAFSSPPQGASPCPESSLTAD | 2.67 |
| FSTDAFSSPPQGASPDPESSLTAD | 3.12 |
| FSTDAFSSPPQGASPEPESSLTAD | 4 |
| FSTDAFSSPPQGASPFPESSLTAD | 2.7 |
| FSTDAFSSPPQGASPGPESSLTAD | 3.66 |
| FSTDAFSSPPQGASPHPESSLTAD | 3.17 |

| Variant | protein stability index |
| --- | --- |
| FSTDAFSSPPQGASPIPESSLTAD | 3.29 |
| FSTDAFSSPPQGASPKPESSLTAD | 2.96 |
| FSTDAFSSPPQGASPLPESSLTAD | 2.83 |
| FSTDAFSSPPQGASPMPESSLTAD | 2.68 |
| FSTDAFSSPPQGASPNPESSLTAD | 3.31 |
| FSTDAFSSPPQGASPQPESSLTAD | 3.33 |
| FSTDAFSSPPQGASPRPESSLTAD | 3.22 |
| FSTDAFSSPPQGASPSPESSLTAD | 2.96 |
| FSTDAFSSPPQGASPTPESSLTAD | 2.96 |
| FSTDAFSSPPQGASPWPESSLTAD | 2.21 |
| FSTDAFSSPPQGASPYPESSLTAD | 2.96 |
| FSTDAFSSPPQGASPVAESSLTAD | 3.79 |
| FSTDAFSSPPQGASPVCESSLTAD | 3.01 |
| FSTDAFSSPPQGASPVDESSLTAD | 4.14 |
| FSTDAFSSPPQGASPVEESSLTAD | 3.89 |
| FSTDAFSSPPQGASPVFESSLTAD | 2.86 |
| FSTDAFSSPPQGASPVGESSLTAD | 3.66 |
| FSTDAFSSPPQGASPVHESSLTAD | 3.85 |
| FSTDAFSSPPQGASPVIESSLTAD | 3.04 |
| FSTDAFSSPPQGASPVKESSLTAD | 2.9 |
